How the values were obtained:
Experiment in all cases: Western blot: E. coli lysate with the GST-tagged peptide, SDS-PAGE, PVDF membrane, POD-labelled antibody diluted 1000-fold, ECL
[1] = target: T1, GST-tagged peptide H36 (positions 221 to 327 with the human IgG4 specific sequence replaced by the … (human, UniProt P0DOX5 343-449 = IgG part))
T1 construct: not shown: GST tag (glutathione S-transferase) linked to the N terminal, expressed from vector pGEX-6P-1
Protocol: (§1) Based on the designed amino acid sequences, base sequences suitable for expressing protein in E. coli were designed according to the protocol of GenScript Corporation, thereby preparing vector pGEX-6P-1 (GE Healthcare Bio-Sciences Corp.) to which the respective base sequences are inserted. The prepared expression plasmid was introduced to E. coli BL 21 strain, thereby obtaining a transformant. The transformant was cultured by an ordinary method and a protein expression was induced by IPTG. After the cells were collected by centrifugation, the cells were dissolved with an ordinary lysis solution, and subjected to ultrasonication. 6 μL of an SDS sample buffer solution was added to 6 μL of the obtained lysate. The respective prepared samples were subjected to a heat treatment at 95° C. for 5 minutes. 10 μL of the E. coli disrupted sample was added to each well of 5 to 20% electrophoresis gel (Atto Corportation) to which an SDS electrophoresis buffer solution was added. Similarly, a molecular weight standard (Bio-Rad Laboratories, Inc.) was added to each well and electrophoresed. After completing the electrophoresis, the electrophoresis gel was transcribed to a PVDF membrane (Millipore Corporation) with a transfer buffer solution. The PVDF membrane was immersed in a membrane blocking buffer solution, and then shaking was carried out at room temperature for 30 minutes. Amino groups of MaI4-08, MaI4-09, and MaI4-05-produced antibodies were subjected to a POD labeling treatment with a POD labeling kit (Dojindo Molecular Technologies, Inc.). The obtained labeled antibodies each were diluted 1000-fold by PBST. After the PVDF membrane was cleaned with PBST, the antibody solutions prepared each were added to the PVDF membrane, and then the reaction was performed at room temperature for 1 hour. After the PVDF membrane was cleaned by PBST, a signal was detected with ECL Prime Western Blotting Detection Reagents (GE Healthcare) with Image Quant Las4000.

[2] = target: T2, GST-tagged peptide H33 (H10 with glutamine for glutamic acid at position 299) (human, UniProt P01861 221-325 = IgG part)
T2 construct: not shown: GST tag (glutathione S-transferase) linked to the N terminal, expressed from vector pGEX-6P-1
T2 chain: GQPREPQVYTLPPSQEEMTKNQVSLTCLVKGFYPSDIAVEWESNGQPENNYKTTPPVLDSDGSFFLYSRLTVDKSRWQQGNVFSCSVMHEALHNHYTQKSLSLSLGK
Protocol: as §1

[3] = target: T3, GST-tagged peptide H35 (H10 with Q235R, R289K, E299Q and L325P) (human, UniProt P0DOX5 343-449 = IgG part)
T3 construct: not shown: N-terminal GST tag (from vector pGEX-6P-1) and any vector linker
T3 chain: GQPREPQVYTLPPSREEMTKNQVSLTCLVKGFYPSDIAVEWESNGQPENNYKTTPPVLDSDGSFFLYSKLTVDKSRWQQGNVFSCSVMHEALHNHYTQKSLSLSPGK
Protocol: as §1

[4] = target: T4, GST-tagged peptide H34 (H10 with proline for leucine at position 325) (human, UniProt P01861 221-324 = IgG part)
T4 construct: not shown: GST tag (glutathione S-transferase) linked to the N terminal, expressed from vector pGEX-6P-1
Protocol: as §1

[5] = target: T5, GST-tagged peptide H1 (full-length human IgG4 heavy chain constant region) (human, UniProt P01861 1-325 = IgG part)
T5 construct: Expressed in E. coli BL21; lysate, reduced and heat-denatured, on SDS-PAGE / Western blot; not shown: GST tag (glutathione S-transferase) linked to the N terminal, expressed from vector pGEX-6P-1
Protocol: as §1

[6] = target: T6, GST-tagged peptide H38 (H10 with R289K, E299Q and L325P) (human, UniProt P0DOX5 343-449 = IgG part)
T6 construct: not shown: N-terminal GST tag (from vector pGEX-6P-1) and any vector linker
T6 chain: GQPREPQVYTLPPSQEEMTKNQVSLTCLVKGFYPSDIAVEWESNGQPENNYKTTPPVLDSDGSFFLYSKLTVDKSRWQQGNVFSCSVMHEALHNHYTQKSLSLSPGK
Protocol: as §1

[7] = target: T7, GST-tagged peptide H12 (positions 99 to 220 of the human IgG4 heavy chain constant region) (human, UniProt P01861 99-220 = IgG part)
T7 construct: E. coli lysate on Western blot; not shown: GST tag (glutathione S-transferase) linked to the N terminal, expressed from vector pGEX-6P-1
Protocol: as §1

[8] = target: T8, GST-tagged peptide H11 (positions 275 to 327 of the human IgG4 heavy chain constant region) (human, UniProt P01861 275-325 = IgG part)
T8 construct: E. coli lysate on Western blot; not shown: GST tag (glutathione S-transferase) linked to the N terminal, expressed from vector pGEX-6P-1
Protocol: as §1

[9] = target: T9, GST-tagged peptide H8 (positions 111 to 327 of the human IgG4 heavy chain constant region) (human, UniProt P01861 111-325 = IgG part)
T9 construct: E. coli lysate on Western blot; not shown: GST tag (glutathione S-transferase) linked to the N terminal, expressed from vector pGEX-6P-1
Protocol: as §1

[10] = target: T10, GST-tagged peptide H32 (H10 with lysine for arginine at position 289) (human, UniProt P01861 221-325 = IgG part)
T10 construct: not shown: GST tag (glutathione S-transferase) linked to the N terminal, expressed from vector pGEX-6P-1
T10 chain: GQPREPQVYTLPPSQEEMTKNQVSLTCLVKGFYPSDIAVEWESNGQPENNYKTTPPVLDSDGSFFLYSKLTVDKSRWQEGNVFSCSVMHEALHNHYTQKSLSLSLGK
Protocol: as §1

T7 sequence (P01861 99-220): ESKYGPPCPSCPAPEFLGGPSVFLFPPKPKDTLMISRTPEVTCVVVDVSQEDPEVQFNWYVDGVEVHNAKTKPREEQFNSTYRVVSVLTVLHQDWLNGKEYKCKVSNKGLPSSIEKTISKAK
T9 sequence (P01861 other isoform, or with tags, fused parts or gaps): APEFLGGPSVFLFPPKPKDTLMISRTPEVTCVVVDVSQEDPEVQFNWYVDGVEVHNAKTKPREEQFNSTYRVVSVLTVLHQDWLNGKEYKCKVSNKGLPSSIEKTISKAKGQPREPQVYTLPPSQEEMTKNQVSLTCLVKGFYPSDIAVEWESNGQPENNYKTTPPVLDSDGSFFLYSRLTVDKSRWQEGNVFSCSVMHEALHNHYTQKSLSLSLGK

B1: MaI4-08-produced antibody (antibody, IgG1, V domains shown)
VH: EVQLQQSGPELVKPGTSVKMSCKASGYIFTSYILHWVKQKPGQGLEWIAYINPYNDGTKYKEKFKGKGTLTSDKSSSTAYMELSSLTSEDSAVYYCARSGGGYGNYAWFAYWGPGTLVTVST
VL: DIQMTQSPSSLSASLGERVSLTCRASQDIGSSLNWLQQEPDGTIKRLIYATSSLDSGVPKRFSGSRSGSDYSLTISSLESEDFVDYYCLQYASYPPTFGAGTKLELK
notes: Purified on protein G from hybridoma culture supernatant; POD-labelled for the Western blots
[1]
  binding result: no binding
[2]
  binding result: no binding
[3]
  binding result: no binding
[4]
  binding result: binds
[5]
  binding result: binds
[6]
  binding result: no binding
[7]
  binding result: no binding
[8]
  binding result: no binding
[9]
  binding result: binds
[10]
  binding result: binds
